Reference: the supplement of paper PMC11246515
± gives the standard deviation of the averaged measurements.

Test: total protein half-life in vivo (active degradation + dilution); higher = more stable protein
[1] = E. coli NCM3722 delta-clpP, growth: N-lim chemostat, doubling time 6 h
[2] = E. coli NCM3722 delta-hslV, growth: N-lim chemostat, doubling time 6 h
[3] = E. coli NCM3722 delta-smpB, growth: N-lim chemostat, doubling time 6 h
[4] = wild type E. coli NCM3722, growth: C-lim chemostat, doubling time 3 h
[5] = wild type E. coli NCM3722, growth: C-lim chemostat, doubling time 6 h
[6] = wild type E. coli NCM3722, growth: C-lim chemostat, doubling time 12 h
[7] = wild type E. coli NCM3722, growth: N-lim chemostat, doubling time 12 h
[8] = wild type E. coli NCM3722, growth: P-lim chemostat, doubling time 6 h
[9] = wild type E. coli NCM3722, growth: P-lim chemostat, doubling time 12 h
[10] = E. coli NCM3722 delta-clpP delta-lon delta-hslV, growth: N-lim chemostat, doubling time 6 h
[11] = E. coli NCM3722 delta-lon, growth: N-lim chemostat, doubling time 6 h
[12] = wild type E. coli NCM3722, growth: N-lim chemostat, doubling time 6 h

| Sequence | total protein half-life in vivo [1] | total protein half-life in vivo [2] | total protein half-life in vivo [3] | total protein half-life in vivo [4] | total protein half-life in vivo [5] | total protein half-life in vivo [6] | total protein half-life in vivo [7] | total protein half-life in vivo [8] | total protein half-life in vivo [9] | total protein half-life in vivo [10] | total protein half-life in vivo [11] | total protein half-life in vivo [12] |
| --- | --- | --- | --- | --- | --- | --- | --- | --- | --- | --- | --- | --- |
| MASISSLGVGSGLDLSSILDSLTAAQKATLTPISNQQSSFTAKLSAYGTLKSALTTFQTANTALSKADLFSATSTTSSTTAFSATTAGNAIAGKYTISVTHLAQAQTLTTRTTRDDTKTAIATSDSKLTIQQGGDKDPITIDISAANSSLSGIRDAINNAKAGVSASIINVGNGEYRLSVTSNDTGLDNAMTLSVSGDDALQSFMGYDASASSNGMEVSVAAQNAQLTVNNVAIENSSNTISDALENITLNLNDVTTGNQTLTITQDTSKAQTAIKDWVNAYNSLIDTFSSLTKYTAVDAGADSQSSSNGALLGDSTLRTIQTQLKSMLSNTVSSSSYKTLAQIGITTDPSDGKLELDADKLTAALKKDASGVGALIVGDGKKTGITTTIGSNLTSWLSTTGIIKAATDGVSKTLNKLTKDYNAASDRIDAQVARYKEQFTQLDVLMTSLNSTSSYLTQQFENNSNSK | > 8 h | > 8 h | > 8 h | 1.4 ± 0.12 h | 0.627 ± 0.1 h | 0.906 ± 0.44 h | > 16 h | > 8 h | > 16 h | – | – | – |
| MASSGTTSTRKRFTGAEFIVHFLEQQGIKIVTGIPGGSILPVYDALSQSTQIRHILARHEQGAGFIAQGMARTDGKPAVCMACSGPGATNLVTAIADARLDSIPLICITGQVPASMIGTDAFQEVDTYGISIPITKHNYLVRHIEELPQVMSDAFRIAQSGRPGPVWIDIPKDVQTAVFEIETQPAMAEKAAAPAFSEESIRDAAAMINAAKRPVLYLGGGVINAPARVRELAEKAQLPTTMTLMALGMLPKAHPLSLGMLGMHGVRSTNYILQEADLLIVLGARFDDRAIGKTEQFCPNAKIIHVDIDRAELGKIKQPHVAIQADVDDVLAQLIPLVEAQPRAEWHQLVADLQREFPCPIPKACDPLSHYGLINAVAACVDDNAIITTDVGQHQMWTAQAYPLNRPRQWLTSGGLGTMGFGLPAAIGAALANPDRKVLCFSGDGSLMMNIQEMATASENQLDVKIILMNNEALGLVHQQQSLFYEQGVFAATYPGKINFMQIAAGFGLETCDLNNEADPQASLQEIINRPGPALIHVRIDAEEKVYPMVPPGAANTEMVGE | 1.25 ± 0.025 h | 1.28 ± 0.21 h | 1.43 ± 0.086 h | 2.4 ± 0.39 h | 2.86 ± 0.38 h | 4.64 ± 1.5 h | 2.49 h | 4.5 h | 8.65 ± 1.8 h | 2.91 ± 0.088 h | 1.6 ± 0.46 h | 1.4 ± 0.11 h |
| MASSNLIKQLQERGLVAQVTDEEALAERLAQGPIALYCGFDPTADSLHLGHLVPLLCLKRFQQAGHKPVALVGGATGLIGDPSFKAAERKLNTEETVQEWVDKIRKQVAPFLDFDCGENSAIAANNYDWFGNMNVLTFLRDIGKHFSVNQMINKEAVKQRLNREDQGISFTEFSYNLLQGYDFACLNKQYGVVLQIGGSDQWGNITSGIDLTRRLHQNQVFGLTVPLITKADGTKFGKTEGGAVWLDPKKTSPYKFYQFWINTADADVYRFLKFFTFMSIEEINALEEEDKNSGKAPRAQYVLAEQVTRLVHGEEGLQAAKRITECLFSGSLSALSEADFEQLAQDGVPMVEMEKGADLMQALVDSELQPSRGQARKTIASNAITINGEKQSDPEYFFKEEDRLFGRFTLLRRGKKNYCLICWK [P0AGJ9] | 5.55 ± 0.44 h | 5.61 ± 0.41 h | 5.58 ± 0.69 h | 3.11 ± 0.094 h | 6.32 ± 0.36 h | – | 10.5 ± 0.76 h | 6.271 ± 0.031 h | 12.2 ± 0.76 h | 5.31 ± 0.33 h | 5.87 ± 0.23 h | 5.51 ± 0.065 h |
| MATAWYKQVNPPQRKALFSAWLGYVFDGFDFMMIFYILHIIKADLGITDIQATLIGTVAFIARPIGGGFFGAMADKYGRKPMMMWAIFIYSVGTGLSGIATNLYMLAVCRFIVGLGMSGEYACASTYAVESWPKNLQSKASAFLVSGFSVGNIIAAQIIPQFAEVYGWRNSFFIGLLPVLLVLWIRKSAPESQEWIEDKYKDKSTFLSVFRKPHLSISMIVFLVCFCLFGANWPINGLLPSYLADNGVNTVVISTLMTIAGLGTLTGTIFFGFVGDKIGVKKAFVVGLITSFIFLCPLFFISVKNSSLIGLCLFGLMFTNLGIAGLVPKFIYDYFPTKLRGLGTGLIYNLGATGGMAAPVLATYISGYYGLGVSLFIVTVAFSALLILLVGFDIPGKIYKLSVAK | – | – | – | 3.16 h | > 8 h | 9.57 h | – | 5.55 h | 9.48 ± 2.4 h | – | – | – |
| MATDSTQCVKKSRGRPKVFDRDAALDKAMKLFWQHGYEATSLADLVEATGAKAPTLYAEFTNKEGLFRAVLDRYIDRFAAKHEAQLFCEEKSVESALADYFAAIANCFTSKDTPAGCFMINNCTTLSPDSGDIANTLKSRHAMQERTLQQFLCQRQARGEIPPHCDVTHLAEFLNCIIQGMSISAREGASLEKLMQIAGTTLRLWPELVK | 3.65 ± 0.34 h | 1.46 ± 0.015 h | 1.57 ± 0.097 h | 1.69 ± 0.081 h | 2.99 ± 0.34 h | 4.6 ± 0.59 h | 2.32 ± 0.54 h | 2.49 ± 0.15 h | 3.73 ± 1.1 h | 5.38 ± 0.14 h | 2.04 ± 0.17 h | 1.78 ± 0.021 h |
| MATDTLTHATAHAHEHGHHDAGGTKIFGFWIYLMSDCILFSILFATYAVLVNGTAGGPTGKDIFELPFVLVETFLLLFSSITYGMAAIAMYKNNKSQVISWLALTWLFGAGFIGMEIYEFHHLIVNGMGPDRSGFLSAFFALVGTHGLHVTSGLIWMAVLMVQIARRGLTSTNRTRIMCLSLFWHFLDVVWICVFTVVYLMGAM [P0ABJ3] | – | – | – | – | – | 13.9 h | – | – | – | – | – | – |
| MATFSLGKHPHVELCDLLKLEGWSESGAQAKIAIAEGQVKVDGAVETRKRCKIVAGQTVSFAGHSVQVVA [P0AAS7] | 3.39 ± 0.29 h | 2.72 ± 0.6 h | 2.3 ± 0.15 h | 2.4 ± 0.59 h | 4 ± 0.91 h | 4.46 ± 0.44 h | 3.68 ± 0.15 h | 1.97 ± 0.26 h | 3.576 ± 0.012 h | 4.09 ± 0.36 h | 4.18 ± 1.2 h | 2.71 ± 0.057 h |
| MATGKSCSRWFAPLAALLMVVSLSGCFDKEGDQRKAFIDFLQNTVMRSGERLPTLTADQKKQFGPFVSDYAILYGYSQQVNQAMDSGLRPVVDSVNAIRVPQDYVTQSGPLREMNGSLGVLAQQLQNAKLQADAAHSALKQSDDLKPVFDQAFTKVVTTPADALQPLIPAAQTFTQQLVMVGDYIAQQGTQVSFVANGIQFPTSQQASEYNKLIAPLPAQHQAFNQAWTTAVTATQ [P0ADK0] | – | 6.34 ± 0.47 h | 6.1 ± 0.9 h | 3.007 ± 0.025 h | 6.13 ± 0.24 h | 13.5 ± 1.5 h | 12.5 ± 0.65 h | 5.88 ± 0.16 h | 12.5 ± 1.1 h | 6.1 ± 0.091 h | 6.34 ± 0.28 h | 5.79 ± 0.17 h |
